Consider 16 molecules from patent US20260241049A1, “Radiopharmaceutical Compositions Targeting Glypican-3 and Uses Thereof” (RayzeBio, Inc., priority 2023, published 2026).

This assay addresses T1, Human Glypican3-Fc (ACRO Biosystems, GP3-H5258) (human, UniProt P51654 25-559).
T1 construct: Bought fusion protein, captured in Methods B-2, B-3 and B-4; Catalogue number is printed only in Method B-2; not shown: Fc part of the bought fusion
The assay can be described thus: SPR (Biacore T200), Method B-3: Glypican3-Fc captured on Protein A chip, peptide as analyte. Here is the method: A Protein A sensor chip (Cytiva) was inserted into a Biacore T200 (Cytiva), priming was performed three times with a running buffer: HBS-P+, pH 7.4 (Cytiva), and equilibration was carried out at a flow rate of 30 μL/min. Glypican3-Fc was allowed to react for 60 seconds at a flow rate of 10 μL/min. After capturing human Glypican3-Fe, a peptide solution prepared to 10 mM in DMSO solution was diluted with a running buffer to a final concentration of 10 μM. […] Using the above samples, peptide kinetics for Glypican3 was obtained by SPR measurement. Kinetics evaluation of Glypican3 was performed by SPR measurements at a flow rate of 10 LL/min, setting the association time to 120 seconds and the disassociation time to 600 seconds.
The obtained data by Method B-1, Method B-2, Method B-3 and Method B-4 were analyzed by follow. Single Cycle Kinetics was used as the kinetics evaluation model, and curve fitting was performed using Biacore T200 Evaluation Software Version 3.0 (Cytiva).
A general note: Surface plasmon resonance follows binding to a sensor surface in real time, without labels.

Starred links: 1 amine or outer side, 2 acyl side, 3 side chain; linkers in the order of their positions; H or OH if unused. Positions of bridges follow the written chain, without caps; N, C: chain ends. Non-standard residues stand in square brackets, D forms with d. Primed or numbered codes have the meaning given here. *: point of attachment. MeKCOpipzaa″ = (2S)-6-{[4-(carboxymethyl)piperazine-1-carbonyl]amino}-2-(methylamino)hexanoic acid, CN([C@@H](CCCCNC(=O)N1CCN(CC(=O)[*:3])CC1)C(=O)[*:2])[*:1]; DOTA‑Lu = DOTA-lutetium(175) amide on the side-chain amine, O=C([O-])CN1CCN(CC(=O)[O-])CCN(CC(=O)*)CCN(CC(=O)[O-])CC1.[175Lu+3]; MeHseMe″ = (2S)-4-methoxy-2-(methylamino)butanoic acid (N-methyl-O-methyl-L-homoserine), COCC[C@@H](C(=O)[*:2])N(C)[*:1]; F4aao = 4-(carboxymethoxy)-L-phenylalanine, O=C([C@H](Cc1ccc(OCC(=O)[*:3])cc1)N[*:1])[*:2]; F4aao(4) = 4-(carboxymethoxy)phenylalanine, O=C([C@H](Cc1ccc(OCC(=O)[*:3])cc1)N[*:1])[*:2]; MeHseMe(5) = N-methyl-O-methyl-homoserine, COCC[C@@H](C(=O)[*:2])N(C)[*:1]; MeHseMe = N-methyl-O-methyl-L-homoserine, COCC[C@@H](C(=O)[*:2])N(C)[*:1]; Thr(Me)(3) = TMe, O-methyl-L-threonine, CO[C@H](C)[C@H](N[*:1])C(=O)[*:2]; SulfoCy5 = sulfo-Cyanine5 hexanoyl dye on the side-chain amine; TMe = O-methyl-L-threonine, CO[C@H](C)[C@H](N[*:1])C(=O)[*:2]; TMe″ = O-methyl-threonine, CO[C@H](C)[C@H](N[*:1])C(=O)[*:2]; NMeAla(isoquinolin-7-yl) = CN[C@@H](Cc1ccc2ccncc2c1)C(=O)O; 3Pal(6-Ph) = N[C@@H](Cc1ccc(-c2ccccc2)nc1)C(=O)O; Phe(4-COOH) = N[C@@H](Cc1ccc(C(=O)O)cc1)C(=O)O; d(tBuAla) = CC(C)(C)C[C@@H](N)C(=O)O; NMeI = CC[C@H](C)[C@H](NC)C(=O)O; NMeQ = CN[C@@H](CCC(N)=O)C(=O)O; NMeK = CN[C@@H](CCCCN)C(=O)O; NMeC = CN[C@@H](CS)C(=O)O

One may read the Kd as the equilibrium constant for the complex coming apart. A lower Kd goes with tighter binding. The molecule Ac-[NMeK](DOTA‑Lu)[NMeI]D[NMeQ][Phe(4-COOH)][TMe″]IY[NMeAla(isoquinolin-7-yl)]G[3Pal(6-Ph)][NMeC]-NH2 (bridge N-12; not fully specified (bridges); also: DOTA-Lu: cold Lu-175 complex) [Lu-C-62] yielded a Kd of 0.15 nM.

B1: Macrocyclic peptide of Example 10-2 (SEQ ID No. 41) (peptide)
peptide: {CH2CO}-[NMeK](dF)[NMeI]D[NMeQ][Phe(4-COOH)]II[F4aao(4)][NMeAla(isoquinolin-7-yl)]G[3Pal(6-Ph)][NMeC]-NH2
modifications: thioether N-12
SMILES: CC[C@H](C)[C@@H]1NC(=O)[C@H](Cc2ccc(C(=O)O)cc2)NC(=O)[C@H](CCC(N)=O)N(C)C(=O)[C@H](CC(=O)O)NC(=O)[C@H]([C@@H](C)CC)N(C)C(=O)[C@H](CCCCNC(=O)[C@H](N)Cc2ccccc2)N(C)C(=O)CSC[C@@H](C(N)=O)N(C)C(=O)[C@H](Cc2ccc(-c3ccccc3)nc2)NC(=O)CNC(=O)[C@H](Cc2ccc3ccncc3c2)N(C)C(=O)[C@H](Cc2ccc(OCC(=O)O)cc2)NC(=O)[C@H]([C@@H](C)CC)NC1=O
With B1, the affinity, expressed as Kd, was 0.54 nM.
The molecule Ac-[NMeK](DOTA‑Lu)[MeHseMe(5)]D[NMeQ][Phe(4-COOH)]IIY[NMeAla(isoquinolin-7-yl)]G[3Pal(6-Ph)][NMeC]-NH2 (bridge N-12; not fully specified (bridges); also: cold Lu-175 chelated by DOTA) [Lu-C-72] displayed a Kd of 0.36 nM. This Kd lies about 1.5-fold lower than the previous one.

B2: Macrocyclic peptide of Example 2-60 (SEQ ID No. 62) (peptide)
peptide: {CH2CO}-[NMeK][NMeI]D[NMeQ][Phe(4-COOH)][TMe]IY[NMeAla(isoquinolin-7-yl)]G[3Pal(6-Ph)][NMeC]-NH2
modifications: thioether N-12
SMILES: CC[C@H](C)[C@@H]1NC(=O)[C@H]([C@@H](C)OC)NC(=O)[C@H](Cc2ccc(C(=O)O)cc2)NC(=O)[C@H](CCC(N)=O)N(C)C(=O)[C@H](CC(=O)O)NC(=O)[C@H]([C@@H](C)CC)N(C)C(=O)[C@H](CCCCN)N(C)C(=O)CSC[C@@H](C(N)=O)N(C)C(=O)[C@H](Cc2ccc(-c3ccccc3)nc2)NC(=O)CNC(=O)[C@H](Cc2ccc3ccncc3c2)N(C)C(=O)[C@H](Cc2ccc(O)cc2)NC1=O
For the molecule B2, the affinity, expressed as Kd, was 0.23 nM.

B3: Macrocyclic peptide of Example B1 (SEQ ID No. 45) (peptide)
peptide: {CH2CO}-[NMeK][MeHseMe″]D[NMeQ][Phe(4-COOH)][TMe]IY[NMeAla(isoquinolin-7-yl)]G[3Pal(6-Ph)][NMeC]-NH2
modifications: thioether N-12
SMILES: CC[C@H](C)[C@@H]1NC(=O)[C@H]([C@@H](C)OC)NC(=O)[C@H](Cc2ccc(C(=O)O)cc2)NC(=O)[C@H](CCC(N)=O)N(C)C(=O)[C@H](CC(=O)O)NC(=O)[C@H](CCOC)N(C)C(=O)[C@H](CCCCN)N(C)C(=O)CSC[C@@H](C(N)=O)N(C)C(=O)[C@H](Cc2ccc(-c3ccccc3)nc2)NC(=O)CNC(=O)[C@H](Cc2ccc3ccncc3c2)N(C)C(=O)[C@H](Cc2ccc(O)cc2)NC1=O
notes: also called macrocyclic peptide 2b
In turn, B3 had a Kd of 0.2 nM. The Kd values of the last two molecules are within 1.5-fold of each other.

B4: Macrocyclic peptide of Example 2-24 (SEQ ID No. 58) (peptide)
peptide: {CH2CO}-[MeKCOpipzaa″][MeHseMe]D[NMeQ][Phe(4-COOH)][Thr(Me)(3)]IY[NMeAla(isoquinolin-7-yl)]G[3Pal(6-Ph)][NMeC]-NH2
modifications: thioether N-12
SMILES: CC[C@H](C)[C@@H]1NC(=O)[C@H]([C@@H](C)OC)NC(=O)[C@H](Cc2ccc(C(=O)O)cc2)NC(=O)[C@H](CCC(N)=O)N(C)C(=O)[C@H](CC(=O)O)NC(=O)[C@H](CCOC)N(C)C(=O)[C@H](CCCCNC(=O)N2CCN(CC(=O)O)CC2)N(C)C(=O)CSC[C@@H](C(N)=O)N(C)C(=O)[C@H](Cc2ccc(-c3ccccc3)nc2)NC(=O)CNC(=O)[C@H](Cc2ccc3ccncc3c2)N(C)C(=O)[C@H](Cc2ccc(O)cc2)NC1=O
With B4, the Kd amounted to 0.5 nM.

B5: Macrocyclic peptide of Example 10-1 (SEQ ID No. 34) (peptide)
peptide: {CH2CO}-[NMeK](His)[NMeI]D[NMeQ][Phe(4-COOH)]II[F4aao(4)][NMeAla(isoquinolin-7-yl)]G[3Pal(6-Ph)][NMeC]-NH2
modifications: thioether N-12
SMILES: CC[C@H](C)[C@@H]1NC(=O)[C@H](Cc2ccc(C(=O)O)cc2)NC(=O)[C@H](CCC(N)=O)N(C)C(=O)[C@H](CC(=O)O)NC(=O)[C@H]([C@@H](C)CC)N(C)C(=O)[C@H](CCCCNC(=O)[C@@H](N)Cc2c[nH]cn2)N(C)C(=O)CSC[C@@H](C(N)=O)N(C)C(=O)[C@H](Cc2ccc(-c3ccccc3)nc2)NC(=O)CNC(=O)[C@H](Cc2ccc3ccncc3c2)N(C)C(=O)[C@H](Cc2ccc(OCC(=O)O)cc2)NC(=O)[C@H]([C@@H](C)CC)NC1=O
The molecule B5 displayed a Kd of 0.51 nM.

B6: Macrocyclic peptide of Example 2-4 (SEQ ID No. 7) (peptide)
peptide: {CH2CO}-[NMeK](Ac)[NMeI]D[NMeQ][Phe(4-COOH)]IIY[NMeAla(isoquinolin-7-yl)]G[3Pal(6-Ph)][NMeC]-NH2
modifications: thioether N-12
SMILES: CC[C@H](C)[C@@H]1NC(=O)[C@H](Cc2ccc(C(=O)O)cc2)NC(=O)[C@H](CCC(N)=O)N(C)C(=O)[C@H](CC(=O)O)NC(=O)[C@H]([C@@H](C)CC)N(C)C(=O)[C@H](CCCCNC(C)=O)N(C)C(=O)CSC[C@@H](C(N)=O)N(C)C(=O)[C@H](Cc2ccc(-c3ccccc3)nc2)NC(=O)CNC(=O)[C@H](Cc2ccc3ccncc3c2)N(C)C(=O)[C@H](Cc2ccc(O)cc2)NC(=O)[C@H]([C@@H](C)CC)NC1=O
On to B6, for which the affinity, expressed as Kd, was 0.3 nM. Against the preceding molecule, the Kd is about 1.7-fold lower.
With Ac-[NMeK](DOTA‑Lu)[NMeI]D[NMeQ][Phe(4-COOH)]II[F4aao(4)][NMeAla(isoquinolin-7-yl)]G[3Pal(6-Ph)][NMeC]-NH2 (bridge N-12; not fully specified (bridges); also: DOTA-Lu: cold Lu-175 complex) [Lu-C-64], the equilibrium dissociation constant (Kd) is 0.53 nM.
In turn, {CH2CO}-[NMeK](SulfoCy5)[NMeI]D[NMeQ][Phe(4-COOH)][TMe]IY[NMeAla(isoquinolin-7-yl)]G[3Pal(6-Ph)][NMeC]-NH2 (thioether N-12) [Mod6] displayed a Kd of 0.24 nM. This Kd lies about 2.2-fold lower than the previous one.
The result for {CH2CO}-[NMeK](SulfoCy5)[MeHseMe]D[NMeQ][Phe(4-COOH)]II[F4aao][NMeAla(isoquinolin-7-yl)]G[3Pal(6-Ph)][NMeC]-NH2 (thioether N-12) [Mod5] reads 3.6 nM; that for {CH2CO}-[NMeK](dE)[NMeI]D[NMeQ][Phe(4-COOH)]II[F4aao][NMeAla(isoquinolin-7-yl)]G[3Pal(6-Ph)][NMeC]-NH2 (thioether N-12) [Macrocyclic peptide of Example B9 (SEQ ID No. 33)], 0.52 nM.

B7: Macrocyclic peptide of Example 2-27 (SEQ ID No. 35) (peptide)
peptide: KQDQFTIFFGXC
modifications: MeK-MeQ-D-MeQ-F4COO-TMe-I-F4aao-MeNal27N-G-3Py6Ph-MeC-NH2; thioether ring from N-terminal acetyl to MeC12
For the molecule B7, binding was characterised by a dissociation constant (Kd) of 1.1 nM. Compared with the last molecule, the Kd is about 2.1-fold higher.

B8: Macrocyclic peptide of Example B8 (SEQ ID No. 42) (peptide)
peptide: {CH2CO}-[NMeK](d(tBuAla))[NMeI]D[NMeQ][Phe(4-COOH)]II[F4aao][NMeAla(isoquinolin-7-yl)]G[3Pal(6-Ph)][NMeC]-NH2
modifications: thioether N-12
SMILES: CC[C@H](C)[C@@H]1NC(=O)[C@H](Cc2ccc(C(=O)O)cc2)NC(=O)[C@H](CCC(N)=O)N(C)C(=O)[C@H](CC(=O)O)NC(=O)[C@H]([C@@H](C)CC)N(C)C(=O)[C@H](CCCCNC(=O)[C@H](N)CC(C)(C)C)N(C)C(=O)CSC[C@@H](C(N)=O)N(C)C(=O)[C@H](Cc2ccc(-c3ccccc3)nc2)NC(=O)CNC(=O)[C@H](Cc2ccc3ccncc3c2)N(C)C(=O)[C@H](Cc2ccc(OCC(=O)O)cc2)NC(=O)[C@H]([C@@H](C)CC)NC1=O
For the molecule B8, the Kd was 0.57 nM.

B9: Macrocyclic peptide of Example 2-59 (SEQ ID No. 63) (peptide)
peptide: {CH2CO}-[NMeK][MeHseMe″]D[NMeQ][Phe(4-COOH)][TMe]I[F4aao][NMeAla(isoquinolin-7-yl)]G[3Pal(6-Ph)][NMeC]-NH2
modifications: thioether N-12
SMILES: CC[C@H](C)[C@@H]1NC(=O)[C@H]([C@@H](C)OC)NC(=O)[C@H](Cc2ccc(C(=O)O)cc2)NC(=O)[C@H](CCC(N)=O)N(C)C(=O)[C@H](CC(=O)O)NC(=O)[C@H](CCOC)N(C)C(=O)[C@H](CCCCN)N(C)C(=O)CSC[C@@H](C(N)=O)N(C)C(=O)[C@H](Cc2ccc(-c3ccccc3)nc2)NC(=O)CNC(=O)[C@H](Cc2ccc3ccncc3c2)N(C)C(=O)[C@H](Cc2ccc(OCC(=O)O)cc2)NC1=O
In turn, B9 came in with a Kd of 1.55 nM.

B10: Macrocyclic peptide of Example 2-57 (SEQ ID No. 1) (peptide)
peptide: {CH2CO}-[NMeK][NMeI]D[NMeQ][Phe(4-COOH)]IIY[NMeAla(isoquinolin-7-yl)]G[3Pal(6-Ph)][NMeC]-NH2
modifications: thioether N-12
SMILES: CC[C@H](C)[C@@H]1NC(=O)[C@H](Cc2ccc(C(=O)O)cc2)NC(=O)[C@H](CCC(N)=O)N(C)C(=O)[C@H](CC(=O)O)NC(=O)[C@H]([C@@H](C)CC)N(C)C(=O)[C@H](CCCCN)N(C)C(=O)CSC[C@@H](C(N)=O)N(C)C(=O)[C@H](Cc2ccc(-c3ccccc3)nc2)NC(=O)CNC(=O)[C@H](Cc2ccc3ccncc3c2)N(C)C(=O)[C@H](Cc2ccc(O)cc2)NC(=O)[C@H]([C@@H](C)CC)NC1=O
For B10, the Kd was 0.17 nM.
